Measurements as given in patent US6849601B1 (priority 1998, dated 2005).
Positions of bridges follow the written chain, without caps; N, C: chain ends. Residues, ends and D or L forms follow the SMILES beside them.

T1: hamster α1B-adrenoceptor (hamster), P18841
T1 chain: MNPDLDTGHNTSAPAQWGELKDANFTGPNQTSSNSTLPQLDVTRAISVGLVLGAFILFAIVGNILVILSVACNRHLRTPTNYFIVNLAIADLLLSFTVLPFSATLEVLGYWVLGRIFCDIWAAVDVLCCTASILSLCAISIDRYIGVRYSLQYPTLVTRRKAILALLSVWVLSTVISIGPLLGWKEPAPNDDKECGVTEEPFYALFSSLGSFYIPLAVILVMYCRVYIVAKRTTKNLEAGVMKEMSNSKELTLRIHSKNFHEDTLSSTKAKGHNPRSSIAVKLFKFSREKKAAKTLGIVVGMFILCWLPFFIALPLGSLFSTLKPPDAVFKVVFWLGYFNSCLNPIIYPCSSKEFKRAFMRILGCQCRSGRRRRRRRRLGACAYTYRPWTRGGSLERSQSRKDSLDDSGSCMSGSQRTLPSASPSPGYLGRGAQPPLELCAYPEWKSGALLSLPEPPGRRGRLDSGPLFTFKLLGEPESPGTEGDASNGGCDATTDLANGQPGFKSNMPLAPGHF

T2: rat α1D-adrenoceptor (rat), P23944
T2 chain: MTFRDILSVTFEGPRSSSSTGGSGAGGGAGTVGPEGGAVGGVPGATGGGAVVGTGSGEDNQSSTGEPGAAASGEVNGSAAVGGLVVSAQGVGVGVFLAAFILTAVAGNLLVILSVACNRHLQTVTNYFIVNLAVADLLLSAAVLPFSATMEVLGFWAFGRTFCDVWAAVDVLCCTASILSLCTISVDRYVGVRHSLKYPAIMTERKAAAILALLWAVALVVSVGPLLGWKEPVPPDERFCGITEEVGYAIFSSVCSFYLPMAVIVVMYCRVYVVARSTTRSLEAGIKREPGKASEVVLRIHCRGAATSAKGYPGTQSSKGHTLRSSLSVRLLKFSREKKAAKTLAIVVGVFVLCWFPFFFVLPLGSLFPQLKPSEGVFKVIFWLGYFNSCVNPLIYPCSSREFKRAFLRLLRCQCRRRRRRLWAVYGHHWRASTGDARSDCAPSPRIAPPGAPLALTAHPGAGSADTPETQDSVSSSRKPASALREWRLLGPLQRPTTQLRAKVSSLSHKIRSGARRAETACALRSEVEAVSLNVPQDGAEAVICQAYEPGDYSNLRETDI

T3: rat α1A-adrenoceptor (rat), P43140
T3 chain: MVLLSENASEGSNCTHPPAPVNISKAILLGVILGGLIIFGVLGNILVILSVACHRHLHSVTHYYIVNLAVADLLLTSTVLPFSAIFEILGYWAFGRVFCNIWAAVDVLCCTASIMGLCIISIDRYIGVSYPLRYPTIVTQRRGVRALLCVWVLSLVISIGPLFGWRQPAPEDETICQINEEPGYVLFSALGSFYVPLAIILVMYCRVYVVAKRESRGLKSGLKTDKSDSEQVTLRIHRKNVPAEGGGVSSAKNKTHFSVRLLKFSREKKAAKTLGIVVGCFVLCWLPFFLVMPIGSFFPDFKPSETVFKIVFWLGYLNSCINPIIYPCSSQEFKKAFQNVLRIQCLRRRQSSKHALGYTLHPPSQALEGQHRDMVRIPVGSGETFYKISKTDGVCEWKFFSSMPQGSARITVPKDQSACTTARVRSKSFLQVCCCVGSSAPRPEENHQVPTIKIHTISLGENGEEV

B1: ρ-TIA (peptide)
peptide: FNWRCCLIPACRRNHKKFC
modifications: not checked

Key:
[1] = system: bisected rat prostatic vas deferens
[2] = biological target: T1, hamster α1B-adrenoceptor (hamster), …
[3] = biological target: T2, rat α1D-adrenoceptor (rat), P23944
[4] = biological target: T1, hamster α1B-adrenoceptor (hamster), …
[5] = biological target: T3, rat α1A-adrenoceptor (rat), P43140

Molecule	IC50 [1] [nM]	Ki [2] [nM]	-log Ki [3]	-log Ki [4]	-log Ki [5]
CC[C@H](C)[C@@H]1NC(=O)[C@H](CC(C)C)NC(=O)[C@@H]2CSSC[C@@H](C(N)=O)NC(=O)[C@H](Cc3ccccc3)NC(=O)[C@H](CCCCN)NC(=O)[C@H](CCCCN)NC(=O)[C@H](Cc3c[nH]cn3)NC(=O)[C@H](CC(N)=O)NC(=O)[C@H](CCCNC(=N)N)NC(=O)[C@H](CCCNC(=N)N)NC(=O)[C@H](CSSC[C@H](NC(=O)[C@H](CCCNC(=N)N)NC(=O)[C@H](Cc3c[nH]c4ccccc34)NC(=O)[C@H](CC(N)=O)NC(=O)[C@@H](N)Cc3ccccc3)C(=O)N2)NC(=O)[C@H](C)NC(=O)[C@@H]2CCCN2C1=O [ρ-TIA, FNWRCCLIPACRRNHKKFC] (H-FNWRCCLIPACRRNHKKFC-NH2; disulfide 5-11, 6-19)	~300	–	–	–	–
B1	–	20	7.09	7.7	7.29
